Results on 1 molecule are retold here after patent publication US20120219559A1 (Johns Hopkins, published 2012).

Experiment [1] concerns the target T1, human B7-H2Ig fusion protein (human, UniProt O75144 19-258).
T1 construct: Ig (Fc) part not given
T1 sequence: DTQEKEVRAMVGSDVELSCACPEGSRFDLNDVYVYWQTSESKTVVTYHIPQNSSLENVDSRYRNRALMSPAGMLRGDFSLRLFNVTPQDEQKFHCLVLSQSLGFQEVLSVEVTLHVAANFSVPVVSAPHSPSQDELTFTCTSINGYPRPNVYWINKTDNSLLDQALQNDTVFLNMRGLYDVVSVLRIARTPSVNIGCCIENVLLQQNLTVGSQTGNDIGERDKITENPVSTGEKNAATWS
Kind of experiment: SPR (BIAcore 3000); comparison of ICOSIg and CD28Ig on immobilized B7-H2Ig. As to the method:
For all experiments, the same fusion proteins were injected into uncoated control flow cells to serve as the control. Binding data was overlaid with the fit of 1:1 interaction model.
Surface Plasmon Resonance. Protein interactions were measured and analyzed on a BIAcore 3000 instrument (BIAcore AB, Uppsala, Sweden) performed at 25° C. as described previously 20. […] Hepes, pH 7.4, containing 0.15 M NaCl, 0.005% surfactant P20 (HBS) was used as running buffer. […] All other reagents were purchased from BIAcore. […] The remaining activated carboxyl groups were blocked with 1 M ethanolamine (pH 8.5). Subsequently, the flow cells were extensively washed with HBS to generate a stable baseline. […] The flow cells were regenerated by two consecutive 10-second pulses with 10 mM NaOH. Data was analyzed by BIAevaluation software 4.1 (BIAcore).
Background: SPR reads the build-up and loss of mass on a sensor chip optically.

Experiment [2] concerns the target T2, human B7-2 (CD86, B70) expressed on 293T cells (human, UniProt P42081 24-329).
T2 construct: whole, on cells
T2 sequence (looked up): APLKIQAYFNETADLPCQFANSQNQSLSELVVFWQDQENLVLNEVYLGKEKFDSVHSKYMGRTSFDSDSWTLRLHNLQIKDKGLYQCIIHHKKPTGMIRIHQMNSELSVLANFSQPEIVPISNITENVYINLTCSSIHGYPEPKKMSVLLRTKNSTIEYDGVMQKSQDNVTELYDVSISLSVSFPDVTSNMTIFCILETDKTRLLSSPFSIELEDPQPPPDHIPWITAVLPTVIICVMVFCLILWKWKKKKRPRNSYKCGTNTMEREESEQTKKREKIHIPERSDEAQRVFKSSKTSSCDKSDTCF
Put plainly: CDS well image, 293T cells transfected with the human gene, stained with the human fusion protein.

The target of experiment [3] is T3, human B7-H1 expressed on 293T cells (human, UniProt Q9NZQ7 19-290).
T3 construct: whole, on cells
The experiment is described as above.

For experiment [4], the target named is T4, human B7-DC expressed on 293T cells (human, UniProt Q9BQ51 20-273).
T4 construct: whole, on cells
T4 sequence (looked up): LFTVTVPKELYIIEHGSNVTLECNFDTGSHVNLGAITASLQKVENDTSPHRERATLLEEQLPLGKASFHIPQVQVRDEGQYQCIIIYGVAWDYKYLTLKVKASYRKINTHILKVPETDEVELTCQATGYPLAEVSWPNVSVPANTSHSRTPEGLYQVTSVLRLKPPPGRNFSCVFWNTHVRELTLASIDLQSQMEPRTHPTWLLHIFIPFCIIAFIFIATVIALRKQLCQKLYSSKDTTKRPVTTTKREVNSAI
Described as above.

The target in experiment [5] is T5, human CD28, full length, expressed on cells (CD28+293T cells) (human, UniProt P10747 19-220).
T5 construct: This id also stands for CD28 on purified human T cells in the functional rows; also called CD28+ cells
Described as above.

Experiment [6] addresses T6, human CTLA-4, full length, expressed on cells (CTLA-4+293T cells) (human, UniProt P16410 36-223).
T6 sequence: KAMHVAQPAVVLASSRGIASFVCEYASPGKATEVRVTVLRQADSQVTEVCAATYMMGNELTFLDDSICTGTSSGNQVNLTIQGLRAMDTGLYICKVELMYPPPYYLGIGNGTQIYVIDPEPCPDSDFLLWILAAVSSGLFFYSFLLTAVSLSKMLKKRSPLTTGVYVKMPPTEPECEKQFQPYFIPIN
The description is as above.

Experiment [7] deals with T7, human ICOS, full length, expressed on cells (ICOS+293T cells) (human, UniProt Q9Y6W8 21-199).
T7 construct: This id also stands for ICOS on human T cells in the functional rows
T7 sequence: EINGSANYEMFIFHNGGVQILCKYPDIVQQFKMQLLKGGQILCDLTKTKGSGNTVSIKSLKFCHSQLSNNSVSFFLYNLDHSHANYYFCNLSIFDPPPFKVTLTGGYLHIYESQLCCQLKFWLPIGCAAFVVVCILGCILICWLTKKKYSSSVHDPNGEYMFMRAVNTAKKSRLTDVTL
The description is as above.

In experiment [8] the target is T8, human B7-1 (CD80) expressed on 293T cells (human, UniProt P33681 35-288).
T8 construct: whole, on cells
T8 sequence (looked up): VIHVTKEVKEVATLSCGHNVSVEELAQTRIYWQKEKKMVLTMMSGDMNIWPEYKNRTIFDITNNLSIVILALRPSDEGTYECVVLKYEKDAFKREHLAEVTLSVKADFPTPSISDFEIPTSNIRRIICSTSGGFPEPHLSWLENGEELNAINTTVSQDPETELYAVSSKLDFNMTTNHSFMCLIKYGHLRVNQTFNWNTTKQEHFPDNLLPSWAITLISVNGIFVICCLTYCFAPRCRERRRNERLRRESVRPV
The description is as above.

T3 sequence (Q9NZQ7 19-290): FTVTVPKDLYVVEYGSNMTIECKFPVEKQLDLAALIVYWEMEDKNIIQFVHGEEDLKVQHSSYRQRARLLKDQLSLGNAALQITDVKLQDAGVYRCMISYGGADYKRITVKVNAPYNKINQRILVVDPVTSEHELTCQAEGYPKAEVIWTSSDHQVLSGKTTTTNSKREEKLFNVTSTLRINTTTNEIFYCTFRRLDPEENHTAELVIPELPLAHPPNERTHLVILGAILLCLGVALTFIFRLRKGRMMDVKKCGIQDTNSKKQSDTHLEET
T5 sequence (P10747 19-220): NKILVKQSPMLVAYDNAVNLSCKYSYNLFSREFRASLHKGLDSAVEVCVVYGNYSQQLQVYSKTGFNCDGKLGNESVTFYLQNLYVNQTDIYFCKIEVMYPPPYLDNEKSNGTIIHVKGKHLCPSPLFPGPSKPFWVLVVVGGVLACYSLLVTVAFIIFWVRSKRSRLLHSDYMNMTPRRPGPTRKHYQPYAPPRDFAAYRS

B1: human ICOSIg fusion protein (Fc fusion)
chain: EINGSANYEMFIFHNGGVQILCKYPDIVQQFKMQLLKGGQILCDLTKTKGSGNTVSIKSLKFCHSQLSNNSVSFFLYNLDHSHANYYFCNLSIFDPPPFKVTLTGGYLHIYESQLCCQLKF
notes: Bought from R&D Systems; Ig (Fc) part not given
In the case of B1, the “fold higher affinity than CD28 for binding B7-H2” value in experiment [1] was ~100 fold. Besides, the binding result in experiment [2], in experiment [3], in experiment [4], in experiment [5], in experiment [6] and in experiment [7] was “no binding” in each case. In addition, in experiment [8], the binding result was “no binding”.
